What was measured:
[1] = Inactivation kinetics of rePON1 192 isozymes in activity buffer; format: biochemical; details: EDTA and β-mercaptoethanol, 37° C.
Description: (§1) FIG. 1 is a graph showing the inactivation kinetics of the wild-type rePON1-192K (SEQ ID NO:2), -192R (SEQ ID NO:4) and -192Q (SEQ ID NO:6) isozymes, bound to rHDL-apoA-I, or in buffer. Delipidated enzymes were incubated with a 50-fold excess of rHDL-apoA-I, or in activity buffer, and subjected to inactivation in the presence of EDTA (5 mM) and β-mercaptoethanol (10 mM) at 37° C. Residual activity at various time points was determined by initial rates of phenyl acetate hydrolysis (2 mM) and plotted as percent of the activity at time zero. Data were fitted to a single exponential for wild-type rePON1-192K on rHDL-apoA-I, and to double-exponentials for the remaining samples. The inactivation rate constants and amplitudes were derived from this fit;
(§2) Inactivation rates of rePON1s were measured as described [Gaidukov, L. and D. S. Tawfik, Biochemistry, 2005. 44(35): p. 11843-54]. Briefly, rePON1 samples were delipidated using Bio-Beads SM-2 (BioRad) and incubated in buffer, or with 50-fold molar excess of rHDL-apoA-I. EDTA (10 mM) and β-mercaptoethanol (20 mM) were added, and samples were incubated at 37° C. Residual activity at different time points was determined with 2 mM phenyl acetate, and inactivation rates were fitted to either mono- or double-exponentials [Gaidukov, L. and D. S. Tawfik, Biochemistry, 2005. 44(35): p. 11843-54].
(§3) The resultant inactivation profiles of wt rePON1 (SEQ ID NO: 2), rePON1-192Q (SEQ ID NO: 6) and rePON1-192R (SEQ ID NO: 4), were fitted to exponential curves as illustrated in FIG. 1.

[2] = target: apoA-I rHDL; details: previously shown; could not be determined accurately by SPR; cited from earlier work
[3] = test system: apoA-I rHDL; assay: Inactivation kinetics of rePON1 192 isozymes bound to rHDL-apoA-I (EDTA/β-mercaptoethanol, residual phenyl acetate hydrolysis); format: biochemical; details: apoA-I rHDL, 50-fold molar excess; EDTA and β-mercaptoethanol, 37° C.
Description: as §1, §2, §3

[4] = test system: apoA-I rHDL; assay: Stimulation of enzymatic activity of rePON1 192 isozymes by rHDL-apoA-I; format: biochemical; details: for Vmax (%) activation factor: relative to delipidated enzyme (100%)
From the text: The activity is presented in relation to the initial activity of the delipidated enzymes (percentage of stimulation). Data were fitted to the Langmuir saturation curve, from which the activation factor (Vmax) and the apparent affinity (Kapp) were derived;
Stimulated activity is presented as the percentage of the initial activity of the delipidated enzymes (corresponds to 100%). Data were fitted to the Langmuir saturation curve, from which the activation factor (Vmax) and the apparent affinity (Kapp) were derived;
Delipidated rePONs at 0.2 μM were incubated with a range of rHDL concentrations (0.1-10 μM) for 3 hrs at 37° C. Enzymatic activity was determined in activity buffer (50 mM Tris pH 8.0, 1 mM CaCl2) with substrates at 1 mM concentrations as described [Gaidukov, L. and D. S. Tawfik, Biochemistry, 2005. 44(35): p. 11843-54]. 5-(thiobutyl)-butyrolactone (TBBL) was applied at 0.25 mM, and product formation was monitored spectrophotometrically at 412 nm using 5,5′-dithio-bis-2-nitrobenzoic acid (DTNB) as described [Khersonsky, O. and D. S. Tawfik, Chembiochem, 2006. 7(1): p. 49-53].
Stimulation of the enzymatic activity was examined by incubating rePON1 isozymes with a range of rHDL concentrations (at the HDL/PON ratio of 0.5-50), and measuring the catalytic activity with various substrates as detailed hereinabove. FIGS. 3A-B illustrate the enzymatic activity of the rePON1 isozymes with δ-nonanoic lactone as substrate (FIG. 3A) and thiobutyl butiryl lactone (TBBL) as substrate (FIG. 3B). FIGS. 4A-D illustrate the enzymatic activity of the rePON1 isozymes with γ-dodecanoic lactone as substrate (FIG. 4A), δ-valerolactone as substrate (FIG. 4B), phenyl acetate as substrate (FIG. 4C) and paraoxon as substrate (FIG. 4D). Data were fitted to the Langmuir saturation curve to give the activation factor Vmax (in percent relative to the delipidated PON1) and the apparent affinity Kapp.

[5] = test system: apoA-I rHDL; assay: Surface plasmon resonance binding of Δ20-rePON1 192 isozymes to immobilized rHDL-apoA-I; details: relative to the Q isozyme
Description: FIGS. 2A-C are sensorgrams for the binding of wt Δ20-rePON1-192K—SEQ ID NO:8 (FIG. 2A), Δ20-rePON1-192R—SEQ ID NO:10 (FIG. 2B) and Δ20-rePON1-192Q—SEQ ID NO:12 (FIG. 2C) isozymes to rHDL-apoA-I. Biotinylated rHDL-apoA-I particles were immobilized onto the streptavidin surface (SA chip), and a series of PON1 concentrations were injected over the immobilized and blank surfaces to obtain the net binding response. Binding was performed at 25° C. Association and dissociation phases were fitted to a single exponential, from which kinetic rate constants were derived. PON1 concentrations in all the sensorgrams are (from bottom to top) 25, 40, 60, 80, 100, 150 and 200 nM;
Surface plasmon resonance (SPR) measurements: rHDL-apoA-I particles containing 0.7% of N-biotinyl-dipalmitoylphosphatidylethanolamine (N-biotynyl-DPPE; Avanti Polar Lipids) were prepared and purified as described [Gaidukov, L. and D. S. Tawfik, Biochemistry, 2005. 44(35): p. 11843-54]. SPR was performed on BIAcore 3000 (Uppsala, Sweden) as described [Gaidukov, L. and D. S. Tawfik, Biochemistry, 2005. 44(35): p. 11843-54]. Briefly, the biotinylated rHDL particles were adsorbed on streptavidin (SA5) chip, and Δ20-rePON1 isozymes were injected over the immobilized and blank surfaces to obtain the net binding response. Binding rate constants were obtained by fitting of association and dissociation phases to single exponentials as described [Gaidukov, L. and D. S. Tawfik, Biochemistry, 2005. 44(35): p. 11843-54].
The above results were further supported by affinity measurements using surface plasmon resonance. It was previously shown that HDL affinity of the intact rePON1 is very high (sub-nanomolar) and could not be determined accurately using surface plasmon resonance [Gaidukov, L., and Tawfik, D. S. (2005)Biochemistry 44, 11843-11854]. In contrast, binding affinity of the truncated variant lacking the first 20 amino acids of the hydrophobic N-terminus (Δ20-rePON1) could be amply determined. Therefore, the truncated variants of PON1 192 isozymes were prepared and their HDL binding affinities measured. Typical binding sensorgrams between Δ20-rePON1 isozymes and the immobilized HDL particles are portrayed in FIGS. 2A-C, and the derived rate and affinity constants are summarized in Table 2 herein below.

[6] = test system: rHDL-apoA-I; assay: Stimulation of enzymatic activity of human PON1 192 isozymes by rHDL-apoA-I; format: biochemical; details: all the lactones tested; rHDL/PON1 ratio of 50
Description: FIGS. 5A-B are graphs showing the inactivation and catalytic stimulation of the human PON1 192R/Q isozymes. FIG. 5A is a line graph showing the inactivation kinetics of human PON1-192R and -192Q in the presence of rHDL-apoA-I. The delipidated isozymes (0.2 μM) were incubated with a 50-fold molar excess of rHDL-apoA-I in activity buffer, and subjected to inactivation by NTA and β-mercaptoethanol (each at 5 mM) at 25° C. Residual activity determined as above (FIG. 1) and data were fitted to a double-exponential function. FIG. 5B is a bar graph showing stimulation of the enzymatic activity of human PON1-192R and -192Q by rHDL-apoA-I. The delipidated isozymes were incubated with a 50-fold molar excess of rHDL-apoA-I, and enzymatic activity was determined with various substrates (at 1 mM for all the substrates, except TBBL at 0.25 mM). The activity is presented in relation to the initial activity of the delipidated enzymes (percentage of stimulation). […]
Human PON1-192R and Q isozymes purified from pooled blood samples [Gan, K. N., et al., Drug Metab Dispos, 1991. […] Stimulation of enzymatic activities was measured with various substrates at 1 mM concentration, except for TBBL (0.25 mM).
HDL-mediated stimulation of the enzymatic activity of human PON1 isozymes was determined by incubating PON1 with the highest rHDL-apoA-I concentration (corresponding to the rHDL/PON1 ratio of 50) (FIG. 5B). […]

[7] = test system: apoA-I rHDL; assay: Inactivation kinetics of human PON1 192 isozymes on rHDL-apoA-I (NTA/β-mercaptoethanol); format: biochemical; details: 50-fold molar excess rHDL-apoA-I; NTA and β-mercaptoethanol each 5 mM, 25° C.
Description: FIGS. 5A-B are graphs showing the inactivation and catalytic stimulation of the human PON1 192R/Q isozymes. FIG. 5A is a line graph showing the inactivation kinetics of human PON1-192R and -192Q in the presence of rHDL-apoA-I. The delipidated isozymes (0.2 μM) were incubated with a 50-fold molar excess of rHDL-apoA-I in activity buffer, and subjected to inactivation by NTA and β-mercaptoethanol (each at 5 mM) at 25° C. Residual activity determined as above (FIG. 1) and data were fitted to a double-exponential function. FIG. 5B is a bar graph showing stimulation of the enzymatic activity of human PON1-192R and -192Q by rHDL-apoA-I. The delipidated isozymes were incubated with a 50-fold molar excess of rHDL-apoA-I, and enzymatic activity was determined with various substrates (at 1 mM for all the substrates, except TBBL at 0.25 mM). The activity is presented in relation to the initial activity of the delipidated enzymes (percentage of stimulation). Each bar represents the mean and S.D. of at least two independent measurements;
Human PON1-192R and Q isozymes purified from pooled blood samples [Gan, K. N., et al., Drug Metab Dispos, 1991. 19(1): p. 100-6] were kindly provided by Dr. Dragomir Draganov (University of Michigan, Ann Arbour), and stored in presence of 0.1% tergitol and 20% glycerol. Prior to assay, these samples were briefly delipidated [Gaidukov, L. and D. S. Tawfik, Biochemistry, 2005. 44(35): p. 11843-54] and dialyzed against activity buffer to remove the tergitol and glycerol that interfere with HDL binding. Dialyzed samples (0.2 μM) were incubated with rHDL (10 μM). Stability assays were performed at 25° C., in activity buffer supplemented with nitrilotriacetic acid (NTA) and β-mercaptoethanol, both at 5 mM. Data analysis was performed as described above for rePON1s. Stimulation of enzymatic activities was measured with various substrates at 1 mM concentration, except for TBBL (0.25 mM).
The progress of inactivation of human PON1 isozymes anchored on rHDL-apoA-I is illustrated in FIG. 5A. Inactivation of both isozymes followed a two-phase kinetics with similar inactivation rates, but different partitioning between the HDL-bound and unbound phases, as detailed in Table 4 hereinbelow. Amplitudes (A) and kinetic rates of inactivation (k^inactiv) were derived by fitting the data to a double-exponential curve.

[8] = substrate γ-dodecanoic lactone 1 mM
[9] = substrate δ-nonanoic lactone 1 mM

B1: wt rePON1-192K: recombinant wild-type PON1 variant G3C9 with C-terminal His8-tag, lysine at position 192, close homologue of rabbit PON1 (protein)
chain: MAKLTALTLLGLGLALFDGQKSSFQTRFNVHREVTPVELPNCNLVKGVDNGSEDLEILPNGLAFISSGLKYPGIMSFDPDKSGKILLMDLNEEDPVVLELGITGNTLDISSFNPHGISTFTDEDNTVYLLVVNHPDSSSTVEVFKFQEEEKSLLHLKTIRHKLLPSVNDIVAVGPEHFYATNDHYFADPYLKSWEMHLGLAWSFVTYYSPNDVRVVAEGFDFANGINISPDGKYVYIAELLAHKIHVYEKHANWTLTPLKSLDFDTLVDNISVDPVTGDLWVGCHPNGMRIFYYDPKNPPGSEVLRIQDILSEEPKVTVVYAENGTVLQGSTVAAVYKGKLLIGTVFHKALYCEL
modifications: C-terminal His8 tag; WT rePON1-192K
notes: recombinant wild-type PON1 variant G3C9 with C-terminal His8-tag, lysine at position 192, close homologue of rabbit PON1
- k1^inactiv (first, fast phase) [1]: 4.5 h⁻¹
- k2^inactiv (second, slow phase) [1]: 0.2 h⁻¹
- HDL affinity of the intact rePON1 [2]: sub-nanomolar
- A2 (%) (amplitude of second, slow inactivation phase = HDL-bound fraction) [3]: 100%
- k2^inactiv (second, slow phase) [3]: 0.01 h⁻¹
- Kapp (apparent affinity for HDL stimulation) ([4]; substrate TBBL 0.25 mM): 0.5 ± 0.1 µM
- Vmax (%) activation factor ([4]; substrate TBBL 0.25 mM): 791 ± 10%
- Kapp (apparent affinity for HDL stimulation) ([4]; substrate paraoxon 1 mM): 0.6 ± 0.1 µM
- Vmax (%) activation factor ([4]; substrate paraoxon 1 mM): 222 ± 2%
- Kapp (apparent affinity for HDL stimulation) ([4]; substrate phenyl acetate 1 mM): 0.5 ± 0.1 µM
- Vmax (%) activation factor ([4]; substrate phenyl acetate 1 mM): 425 ± 4%
- Kapp (apparent affinity for HDL stimulation) [4, 8]: 1.2 ± 0.1 µM
- Vmax (%) activation factor [4, 8]: 1830 ± 22%
- Kapp (apparent affinity for HDL stimulation) [4, 9]: 1.3 ± 0.1 µM
- Vmax (%) activation factor [4, 9]: 1580 ± 19%
- Kapp (apparent affinity for HDL stimulation) ([4]; substrate δ-valerolactone 1 mM): 1.3 ± 0.1 µM
- Vmax (%) activation factor ([4]; substrate δ-valerolactone 1 mM): 1724 ± 23%
- fold higher HDL binding affinity than the Q isozyme [5]: 3 fold

B2: human PON1-192R: human PON1 192R isozyme purified from pooled blood samples (protein)
chain: AKLIALTLLGMGLALFRNHQSSYQTRLNALREVQPVELPNCNLVKGIETGSEDLEILPNGLAFISSGLKYPGIKSFNPNSPGKILLMDLNEEDPTVLELGITGSKFDVSSFNPHGISTFTDEDNAMYLLVVNHPDAKSTVELFKFQEEEKSLLHLKTIRHKLLPNLNDIVAVGPEHFYGTNDHYFLDPYLRSWEMYLGLAWSYVVYYSPSEVRVVAEGFDFANGINISPDGKYVYIAELLAHKIHVYEKHANWTLTPLKSLDFNTLVDNISVDPETGDLWVGCHPNGMKIFFYDSENPPASEVLRIQNILTEEPKVTQVYAENGTVLQGSTVASVYKGKLLIGTVFHKALYCEL
- fold higher activation level than 192Q [6]: about 2 fold
- A2(%) (slow phase, HDL-bound fraction) [7]: 87%
- k1^inactiv (first, fast phase) [7]: 0.4 h⁻¹
- k2^inactiv (second, slow phase) [7]: 0.01 h⁻¹

From US20100028924A1, “Method Of Diagnosing Pon1-Hdl Associated Lipid Disorders” (Rappaport Family Institute Research in the Medical Sciences, priority 2006, published 2010)
